In article PMC12684077 (Cell, 2025):

B1: RSV-3301 Fab (Fab, V domains shown)
VH: QVQLVESGPTLVKPTQTLTLTCSFSGFSLSTRGVGVGWVRQPPGKALECLGFTYWDGDEYYSPSLRNRVTISKDTSKNQVVLTLTNMDPVDTATYFCVHSDLYDRGGYYLYYFDYWGQGTLVTVSS
VL: DIRVTQSPSSLSASVGDRVTITCRASQTIASYVNWYQQKPGRAPELLIYAASILQSGVPSRFSGRGSGTDFTLTINGLQPEDFATYYCQQSYSSPWTFGQGTKVEIK
B2: RSV-2245 Fab (Fab, V domains shown)
VH: QVQLVQSGAEVKKPGASVKVSCKASGYSFSSFGVSWVRQAPGQGLEWLGWISAYNGNTDYAQKVQGRLTMTTDTSTNTAYMELRNLRSDDTAVYYCARDPPASAAAMFDYWGQGTLVTVSS
VL: not shown

Biological target: RSV prefusion F (PR-DM) (Human respiratory syncytial virus A, …, stabilised)
Experiment: cryo-EM structure

Row | Binder | stoichiometry N
1 | B1 | 3 copies of the Fab per F trimer
2 | B2 | 3 copies of the Fab per F trimer
